We go through two substances from patent publication US20070105925A1.

Series [1] has as its target human recombinant (hr) ACE2 (human) (UniProt Q9BYF1). The series can be described thus: cell-based or functional assay.
Series [2] has as its system T1, 7-methoxycoumarin-Tyr-Val-Ala-Pro-(2,4-dinitrophenyl)Lys.
T1 sequence: YVAPK

Chain of human recombinant (hr) ACE2 (human) (Q9BYF1 18-740 limits assumed): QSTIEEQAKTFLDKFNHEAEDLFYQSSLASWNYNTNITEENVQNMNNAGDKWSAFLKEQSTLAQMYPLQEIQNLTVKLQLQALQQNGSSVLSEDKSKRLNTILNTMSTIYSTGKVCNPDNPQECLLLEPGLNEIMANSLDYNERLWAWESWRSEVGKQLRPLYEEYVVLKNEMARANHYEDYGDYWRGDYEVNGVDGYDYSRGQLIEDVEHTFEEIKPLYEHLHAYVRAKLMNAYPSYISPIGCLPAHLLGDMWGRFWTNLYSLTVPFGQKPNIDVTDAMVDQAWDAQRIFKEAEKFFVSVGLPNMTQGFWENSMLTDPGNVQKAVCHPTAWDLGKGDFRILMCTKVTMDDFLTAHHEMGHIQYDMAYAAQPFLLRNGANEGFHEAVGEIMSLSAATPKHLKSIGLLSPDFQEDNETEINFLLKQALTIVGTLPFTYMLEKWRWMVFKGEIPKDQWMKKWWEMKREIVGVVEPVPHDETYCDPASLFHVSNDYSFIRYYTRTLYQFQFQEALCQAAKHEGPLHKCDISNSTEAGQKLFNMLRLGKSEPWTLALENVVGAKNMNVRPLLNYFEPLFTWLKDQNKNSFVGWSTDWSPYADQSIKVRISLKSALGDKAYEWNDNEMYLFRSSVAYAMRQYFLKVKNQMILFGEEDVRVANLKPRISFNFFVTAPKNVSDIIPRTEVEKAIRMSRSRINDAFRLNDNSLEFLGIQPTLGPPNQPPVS

For DX600 (peptide), in series [1], the quenching of the fluorescence signal from cleavage of 7-Mca-YVADAPK(Dnp) by hrACE2 (enzyme inhibition) is 100 nmol/L.

In the case of human recombinant (hr) ACE2, the “fluorescence from cleavage of the substrate, hACE2 spiked into kidney extract of an ACE2-knockout mouse” value in series [2] was “the fluorescence signal was recovered in a dose dependent manner, with a linear relationship (r=0.990, p<0.001) in the range of 0.4 to 50 ng ACE2 protein/well”.
